Measurements as given in PMC12404239.

Biological target: CoV OC43 spike glycoprotein (S) (human coronavirus OC43) (UniProt P36334)
Test: […], running buffer TBS, […]

## CoV OC43 spike glycoprotein (S) (from UniProt P36334 14-1263) (natural protein)
  stoichiometry N: 3
